Assay: yeast display, Sf9 membrane polyspecificity reagent, FACS + sequencing; frameworks hold sequencing errors
How it was run: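 Sorting gates, low and high (top ~1%), were placed on anti-HA fluorescence to track expression and on streptavidin fluorescence to track reagent binding. A clone's polyreactivity label is taken from the gate it came out of. The reagent was 10% biotinylated, detergent-solubilized Sf9 membrane, applied for 1 hour at 4 °C to galactose-induced yeast display cells.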

QVQLVESGGGLVQAGGSLRLSCAASGRTFGTNALGWYRQAPGKERELVASIDLSADSTYYADSVKGRFTISRDNAKKTVYLQMNSLKPEDTAVYYCNKDGYPWPPNLDYWGQGTQVTVSS
polyreactivity (PSR sort gate): low polyreactivity

QVQLVESGGGLVQAGGRLRLRCAASGSIFYAYDRGWYRQAPGKERELVAAINWSGDSTYYADSVKGRFTISRDNAKNTVDLQMNSLKPEDTALYYCAAVSGSGDSGEYDYWGQGTQVTVSS
polyreactivity (PSR sort gate): low polyreactivity

QVQLVESGGGFVQAGGSLRLSCAASGRIFRTNAMGWYRQAPGKERELVAAITSSGTRTYYADSVKGRFTISRDNAKNTVYLQMNSLKPEDTAVYYCAAGGGHSMYYWGQGTQVTVSS
polyreactivity (PSR sort gate): high polyreactivity

KVQLVESGRALVQAGGSLRLSCAASGSTFGNNAMGWNRPAPGKERELVATIDDTTVSTNYADSVKGRFTISRDNAKNTVYLQMTCLKPEDTAVYYCSADDVDGSPYDYWGQGTQGTVSS
polyreactivity (PSR sort gate): low polyreactivity

QVQLVESGGGLVQAGGSLRLSCAASGFIFTRYAMGWYRQAPGKERELVAGINRSGSRTYYADSVKGRFKISRDNAKNTVYLQMNSLKPEDTAVYYCATDTWYLYSTLDYWGQGTQVTVSS
polyreactivity (PSR sort gate): high polyreactivity

QVQLVESGGALVQAGGSLRLSLADSGMTFSQNAMGWYRQAPGKERELVAAISSSGTSTYYADSVKGRFTISRDNAKNTVYLQMNSLKPEDTAVYYCNAPPGTFQWQGHSDYWGQGTQVTVSS
polyreactivity (PSR sort gate): low polyreactivity

QVQLVESGGGLVQAGGSLRLSCAASGRTIRYYAMGWYRQAPGKERELVAAITVTVTSTFYADSVKGRFTISRDDAKNTVYLQMNSLKPEDTAVYYCAKVDRQSPGQYYYWGQGSQVTVSS
polyreactivity (PSR sort gate): low polyreactivity

QVQLVESGGGLVQAGGSLRLSCAASGRIFGHYAMGWYRQAPGKETELVASISWRGGRTYYADSVKGRFTISRDNAKNTVYLQMNSLKPEDTAVYYCAARVNYKPYADYYYWGQGTQVTVSS
polyreactivity (PSR sort gate): high polyreactivity

QVQLVESGGGLVQAGGSLRLSCAASGIIFSSYAMGWYRQAPGKERELVAAISWSGGSTYYADSVKGRFTISRDNAKNTVYLQMNSLKPEDTAVYYCAAYPVWYYEYDYWGQGTQVTVSS
polyreactivity (PSR sort gate): low polyreactivity

QVQLVESVGGLVQAGGSLSISCAASGRIFPRNAMGWYRPAPGKERELVAAISSGGGGTYYADSVKGRFTISRDNAKNTVYLQMNSQKPEDTAVYYCAAYVVRWWCDGDYWGQGTQVTVSS
polyreactivity (PSR sort gate): high polyreactivity

QVQLVDSVGGLVQAGGSLRLSCAASGSIFNPYDMGWSRQAPGKERELVAAIDWSGGSTYYADSVKGRFTISRDNAKNTVYLQMNSLKPEDTAVYYCNARPDYSISLPGYPTLSEDDEYWGQGTQVTVSS
polyreactivity (PSR sort gate): low polyreactivity

QVQLVESGGGLVLTGGSLRLSCAASGSILGTYAMGWYRQAPGKERELVARISRGGSTNYADSVKGRFTISRDNAKNTVYLQMNSLKPEDTAVYYCAKRLYLPESWRYYYWGQGTQVTVSS
polyreactivity (PSR sort gate): high polyreactivity

QVQLVESGGGLVQAGCSLRLSCAASGRIFTSNAMGWYRQAPGTERELVAVISRRGGSTYYADSVKGRFTISRDNAMNTVYLQMNSLKPEDTAVYYCARRPYSYTRYEYWGQGTQVTVSS
polyreactivity (PSR sort gate): low polyreactivity

QVQLVESGGGLVQAGGSLRLSCAASGYIFSYYTMGWYRQAPGKERELVAAISYSGGSTDYADSVKGRFTISRDNAKNTVYLQMNSLKPEDTAVYYCNADYSFWAKPYWEYGYDYWGQGTQVTVSS
polyreactivity (PSR sort gate): low polyreactivity

QVQLVESGGGLVQAGGSLRLSCAASGRIFYSNAMGWYRQAPGKERELVAGINYRDGSTYYADSVKGRFTISRDNAKKTVYLQMNSLKPEDTAVYYCAKRRQSYPYKTSTWYSHYSWGQGTQVTVSS
polyreactivity (PSR sort gate): high polyreactivity

KVQLVESGGGLVQAGGSLRISCAASGFIFVDYAMGWYRQAPGKERELVAAISSSGSTTYADSVKGRFTISRDNAKNIVYLQMNSLKPEDTAVYYCNADAEVVPGEYDYWGQGTQVTVSS
polyreactivity (PSR sort gate): low polyreactivity

QVQLVESGGGLVQAGGSLRLSCAASGRIFTKYAMGWYRQAPGKERELVATITRNGGSTYYADSVKGRFTISRDNAKNTVYLQMNSLKPEDTAVYYCAADKRYKLDYWGQGTQVTVSS
polyreactivity (PSR sort gate): high polyreactivity

QVQLVESGGGLVQAGGSLRLSCAASGRTFRIYAMGWYRQAPGKERELVAAINSGGTTNYADSVKGRFTISRDNAKNTVYLQMISLKPEDTAVYYCAVRYWKTLSHFSYDYWGQGTQVTVSS
polyreactivity (PSR sort gate): low polyreactivity

QVQLVESGGCLVQAGGSLRLSCAASGFTFSSNAMGWYRQAPGKERELVAAISFNSTSTYYADSVKGRFTISRDNAKNTVYLQMNSLKPEDTAVYYCAADVPRVQSEPEYDYWGQGTQVTVSS
polyreactivity (PSR sort gate): low polyreactivity

QVQLVESGGGLVQAGGSLRLSCAASGRTFYPYAMGWYRQAPGKERELVAAITISVGSTYYADSVKGRFTISRDNAKNTVYLQMNSLNPEDTAVYYCAAANTPEYDYWGQGTQVTVSS
polyreactivity (PSR sort gate): low polyreactivity

QVQLVESGGGLDQAGGSLRLSCAASGSTFRSNAMGWYRQAPGKERELVAGITSGTSTNYADSVKGRFTISRDNAKNTVYLQMNSLKPEDTAVYYCNTDRIWYGPEYDYWGQGTQVTVSS
polyreactivity (PSR sort gate): low polyreactivity

QVQLVESGGGLVQAGGSLRLSCAASGSTFTTYAMGWYRQAPGKERELVAAISRTGGVTYYADTVKGRFTISRDNGKKTVYLQMNSLKPDDTAVYYCNAGLFRGAQFDYWGLGTQVTVSS
polyreactivity (PSR sort gate): high polyreactivity

QVQHVESGGGLVQAGGSLRLSCAASGRTFYRNAMGWYRPAPGKERELVAAISWSGGRTFYADSVKGRFTISRDNAKNTVYLQMNSLKPEDTAVYYCAKTYTTPGYYRYDYWGKGTQVTVSS
polyreactivity (PSR sort gate): high polyreactivity

QDQLVESGGGLVQAGGSLRLSCAASGRINAMGWYRQAPGKERELVAVITLRGGSTYYADSVKGRFTISRDNAKNTVYLQMNSLKPEDTAVYYCAAETLVSFWFDYWGQGTQVTVSS
polyreactivity (PSR sort gate): low polyreactivity

QVQLVESGGGLVQAGGSLRLSCAASGLIFVNAMGWYRQAPGKEREFVAAITYSTGSTYYADSVKGRFTISRDIAKNTVYLQMNSLKPEDTAVYYCAKDRSGHGTERDYWGQGTQVTVSS
polyreactivity (PSR sort gate): low polyreactivity

QVQLVESGGGLVQAGGSLRLSCAASGITFWYYAMGWYRQAPGKERELVAAITRSGRTNYADSVKGRFTISRDNAKNTVYLQMNSLKPEDTAVYYCAVYLYSFSPRYYYWGQGTQVTVSS
polyreactivity (PSR sort gate): low polyreactivity

QVQLVESGGGLVQAGGSLRLSCAASGRIFAWYSMGWYRQAPGEERELVAGISWICGSTYNADSVKGRFTISRDNAKNTVYLQMNSLKPEDTAVYYCNARKKPGSLLDIIGYDYWGQGTQVTVSS
polyreactivity (PSR sort gate): low polyreactivity

QVQLVESGGGLVQAGGRLRLSCAASGRIFDRYAMGWYRQAPGKERELVAGISFSGGRTYYADSVKGRFTISRDNAKNTVYLQMNSLKPEDTAVYYCNTVTSGFLSYDYWGQGTQVTVSS
polyreactivity (PSR sort gate): high polyreactivity

QVQLVESGGGLVQAGGSLRLSCAASGYMGWYRQAPGKERELVATISGSGGSPYYADSVKGRFSISRDNAKNTVYLQMNSLKPEDTARYYCTTEIWGVNRSGYDYWGQGTQVTVSS
polyreactivity (PSR sort gate): low polyreactivity

QVQLVESGGGLVQAGGSLRLSCAASGRTFRVYAMGWYRQAPGKERELVAAITRGGSTYYADSVKGRFTISRDNAKNTVYLQMNSLKPEDTAVYYCAADVLRTQPIGWYSHSPLEYWGQGTQVTVSS
polyreactivity (PSR sort gate): high polyreactivity

QVQPVESGAGLVQAGGSLRLSCAASGSIFWSYAMGLYRQAPGKERELVAAITTSDGSTYYADSVKWRFTISRDNAKNTVYLQMNSLKPEDTAVYYCAADTYYVSYGYYYWGQGTQVTVSS
polyreactivity (PSR sort gate): low polyreactivity

QVQLVESGGGLVQAGGSLRLSCAASGSTFGSYAMGWYRQAPGKERELVASISLSDGSTYADSVKGRFTISRDNAKNTVYLQMNSLKQEDTAVYYCNVDWFSHDSDYYSFAYDYWGQGTQVTVSS
polyreactivity (PSR sort gate): high polyreactivity

QVQLVESGGGLVQAGGSLRLSCAASGIIFRRYAMGWYRQEPGKARELVAAITSGGDTNYADSVKGRFTLSRDNAKNTVYLQMNSLKPEDTAVYYCNAGLRGVRRYGFDYWGQGTQVTVSS
polyreactivity (PSR sort gate): high polyreactivity

QDQLVESGGGLVQAGGSLRLSGAASGRIFRTNAMGWSRQAPGKERELVAAISDSGADTSYADSVKGRFTISRDNAKQSVYLQMNSLKPEDTAVYYCNRGRVSYRYLKDYDYWGQGTQVTVSS
polyreactivity (PSR sort gate): low polyreactivity

QVQLVESGGGLVQAGGSIRLSCAASGSTISHNAMGWYRQAPGKERELVAAITRGDSTNYADSVKGRFTNTRDNAKNTVYLEMNSLKPEDTAVYYCNANKWYRYDYWGQGTQVTVSS
polyreactivity (PSR sort gate): low polyreactivity

QVRLVESGGGLVQAGGSLRLSCAASGRIFASYAMGWNRQAPGKETELVAAISKSGGRTYYADSVKGGFTISRDNAKNTVYLQMNSLKPEDTAVYYCAAYFWTRSGTPNYDYWGQGTQVTVSS
polyreactivity (PSR sort gate): high polyreactivity

QVQLVESGGGLVQAGGSLRLSCAASGSTFYIYAMGWYRQAPGKERELVAAITWSGSRTYYADSVKGRFTISRDNAKNTVYLQMNSLKPEDTAVYYCAARSYRNNRYKEDYWGQGTQVTVSS
polyreactivity (PSR sort gate): high polyreactivity

QVQLVESGGGLVQAGGSLRLSCAASGFTIIIYAMGWYRQAPGKERQLVAAINTSGTRTYYADSVKGRFTISRDNAKNTVYLQMNSLKPEDTAVYYCAARSGYKGEHGDRDDYWGQGTQVTVSS
polyreactivity (PSR sort gate): high polyreactivity

QVQLVESGGGLVLAGGSLRLSCAASGRIFWNYAMGWYRQAPGKERELVASINWSGGSTYYADSVKGRFTISRDNAKNTVYLQMNSLKPEDTAVYYCNKDGRVYLDHDYWGQGTQVTVSS
polyreactivity (PSR sort gate): low polyreactivity

QDQLVESGGGLVQAGGSLRLSCAASGSTFGYARGWYRQAPGKERELVAAITSTGGSTYYADSVKGRFTISRDNAKNTVYLQMNSLKPEDTAVYYCAAQVGRVYVVYPVYKYGYWGQGTQVTVSS
polyreactivity (PSR sort gate): high polyreactivity

QVQLVESGGGLVQAGGSLRLSCAASGYTFYYSMGWYRQAPGKERELVAAISAGGGRTYYADSVKGRFTISRDNAKNTVYLQMNSLKPEDTAVYYCNRVYRLTAYGYDYWGQGTQVTVSS
polyreactivity (PSR sort gate): high polyreactivity

QVQLVESGGGLVQAGGSLRLSCAASGSTFDGYAMGWYRQAPGKERELVAAISYSGSSTYYADSVKGRFTISGDNAKNTVYLQMNSLKPEDTAVVYCAVDDTHPFGPDGGGDYWGQGTQVTVSS
polyreactivity (PSR sort gate): low polyreactivity

EEELVESGGGLVQAGGSLRLSCAASGNIFEVNTMGWYRQAPGKERELVAAITSTGSTNYADSVKGRFTISRDNAKNTVYLQMNSLKPVDTAVYYSSATLEWYRYTYEYDYWGQGTQVTVSS
polyreactivity (PSR sort gate): low polyreactivity
